Data: patent publication US20240279618A1, “RECEPTOR TYROSINE KINASE AGONIST, COMPOSITION FOR CELL CULTURE MEDIUM, AND […] MAINTENANCE COMPOSITION” (SEKISUI CHEMICAL CO., LTD., priority 2021, published 2024)

Experiments:
[1] = system: human bone marrow-derived MSC; assay: MSC culture: evaluation of cell growth and morphology; format: cell-based; set-up: key to P3 Growth rate / P4 Growth rate / P5 Growth rate: cells per well at passage divided by cells at seeding; settings: for P2 Count (3-well) / P2 Growth rate / P3 Count (3-well) / P3 Growth rate / P4 Count (3-well) / P4 Growth rate / P5 Count (3-well) / P5 Growth rate / cumulative number of cells (average value), P1 / cumulative number of cells (average value), P2 / cumulative number of cells (average value), P3 / cumulative number of cells (average value), P4 / cumulative number of cells (average value), P5 / P1 Count (2-well): MSC, 20 ng/mL; for cumulative number of cells (average value), P1: culture day 5; for cumulative number of cells (average value), P2: culture day 10; for cumulative number of cells (average value), P3: culture day 15; for cumulative number of cells (average value), P4: culture day 20; for cumulative number of cells (average value), P5: culture day 25; for growth performance of MSC (cumulative number of cells): regardless of the FBS concentration (10% or 20%); for morphology of MSC: 4 passages, Day 1
Protocol: 10 mL of a used portion of D-MEM medium (Low Glucose, Glutamine) (Fujifilm Wako Pure Chemical Corporation, C/N: 041-29775) was added to a 15 mL PP tube, and warmed in a thermostatic water tank (set at 37° C.). A human bone marrow-derived MSC (Stemcell Technologies, C/N: 70022) stock tube preserved in a liquid nitrogen gas phase was taken out from a liquid nitrogen container and thawed in a thermostatic water tank (set at 37° C.). Thereafter, the cells were rapidly moved with a pipette into the tube (including 10 mL of the medium) that had been heated to 37° C. in a clean bench, and mixed by pipetting. The tube was centrifuged (300× g, 5 minutes) and the supernatant was removed with an aspirator.
An appropriate amount of D-MEM that had been warmed to room temperature was added to a cell pellet and mixed, and then the number of cells was evaluated with a cell counter. An appropriate amount of the cell suspension was taken into a 15 mL PP tube and centrifuged (300× g, 5 minutes). The supernatant was removed, an appropriate amount of D-MEM (containing 10% or 20% of FBS (Thermo Fisher Scientific Inc., 16140071); the stock was preserved under refrigeration and used within 2 weeks) was added to a cell pellet to adjust a cell suspension (1).
The number of cells was evaluated again with a cell counter and the cells were appropriately diluted with each of the media. Next, a stock of basic FGF or VHH was added to the cell suspension (1), so that each of the final concentrations was 1 ng/ml or ng/mL. Seeding was performed onto a CellBIND 6-well plate (Coming, C/N: 3335) at a density of 3-5×10^4/well, and after 2 to 4 days, medium exchange was performed using D-MEM (containing 10% FBS or 20% FBS).
The cells were observed under a microscope, and basically, passage was carried out after 5 days from seeding. In advance, the used D-MEM (0% FBS, 10% FBS, or 20% FBS) was warmed in advance in a thermostatic water tank (set at 37° C.). After washing the cells with D-PBS, 500 μL of TrypLE Express was added thereto and the cells were left to stand in a CO2 incubator. After 5 to 10 minutes, the culture container was removed from the CO2 incubator, and a change in cell morphology was confirmed under a microscope. Thereafter, 1 mL of D-MEM was added to each well, and the cells were released by pipetting, suspended, and then recovered in a 15 mL PP tube.
The tube was centrifuged (300× g, 5 minutes) and the supernatant was removed with an aspirator. An appropriate amount of a D-MEM medium (containing 10% FBS or 20% FBS) was added to the cell pellet, and mixed by pipetting. A part of the cell suspension was collected and the number of cells was evaluated with a cell counter. After counting the […] in each well, the cell suspensions in the same group were collected in one tube and mixed together. The average value of individual wells was used to calculate the number of cells at the time of passage.
The cell suspension was appropriately diluted with D-MEM (10% FBS or 20% FBS). The cells were seeded on a new CellBIND 6-well plate at […] cells/well. Furthermore, one well was adjusted to 2 mL/well. After 2 to 4 days, medium exchange was performed with a medium at room temperature.
The average value of the counts of number of cells per well acquired during the passage was used to create a cell growth straight line. In addition, a value obtained by dividing the number of cells per well at the time of passage by the number of cells at the time of seeding was defined as a growth rate during that period, and the rate was used at the time of calculating a cumulative number of cells. In a case in which the number of cells per well at the time of initial seeding is defined as P(0) and the time of the N^th passage is defined as P(N), the cumulative number of cells at each passage is determined by the following calculation equation. […]

[2] = Thermal stability by protein thermal shift assay (SYPRO Orange); format: physicochemical; settings: 0.5 mg/mL in D-PBS, 25° C. to 95° C., 1° C./min
Protocol: The Td is evaluated by a Td value at the time of raising the temperature from 25° C. to 95° C. (temperature rising rate: 1° C./min) under the solution conditions of a protein concentration (0.5 mg/mL) in a D-PBS solution (including 0.2 g of KH2PO4, 1.15 g of Na2HPO4, 0.2 g of KCl, and 8 g of NaCl per liter of the aqueous solution, pH 7.4).
The thermal stability of VHH was measured by a protein thermal shift assay method.
In order to confirm the thermal stability of the VHH monomer Clone #1 and the tandem dimer #1L4, the denaturation temperature (Td) was measured by a protein thermal shift assay method. […] In addition, in order to measure the fluorescence background, a control including no protein was also prepared at the same time, and dispensed into an 8-strip PCR tube (manufactured by Nippon Genetics Co., Ltd.). This tube was set in a real-time PCR measuring device, QuantStudio 3 (manufactured by Thermo Fisher Scientific, Inc.), and a change in fluorescence intensity in a range of 25° C. to 95° C. was measured under the condition of 1° C./min using a fluorescence filter for ROX measurement. After the measurement, Td was calculated using the value obtained by subtracting the background value from the measured value.

[3] = FBS 10%, cells at passage divided by cells at seeding
[4] = FBS 10%, number of cells (average value) at passage P1

Row | Molecule | P2 Count (3-well) ([1]; FBS 10%) | P2 Growth rate [1, 3] | P3 Count (3-well) ([1]; FBS 10%) | P3 Growth rate ([1]; FBS 10%) | P4 Count (3-well) ([1]; FBS 10%) | P4 Growth rate ([1]; FBS 10%) | P5 Count (3-well) ([1]; FBS 10%) | P5 Growth rate ([1]; FBS 10%) | cumulative number of cells (average value), P1 ([1]; FBS 10%) | cumulative number of cells (average value), P2 ([1]; FBS 10%) | cumulative number of cells (average value), P3 ([1]; FBS 10%) | cumulative number of cells (average value), P4 ([1]; FBS 10%) | cumulative number of cells (average value), P5 ([1]; FBS 10%) | P1 Count (2-well) [1, 4] | P1 Count (2-well) ([1]; FBS 20%, P1) | P2 Count (3-well) ([1]; FBS 20%) | P2 Growth rate ([1]; FBS 20%) | P3 Count (3-well) ([1]; FBS 20%) | P3 Growth rate ([1]; FBS 20%) | P4 Count (3-well) ([1]; FBS 20%) | other results
1 | FGF2: fibroblast growth factor (basic), human, recombinant (154aa), positive control; SEQ ID NO: 58 [reference compound] | 3.6E+05 | 7.2 | 3.5E+05 | 7.0 | 3.0E+05 | 6.0 | 2.0E+05 | 3.9 | 6.8E+05 | 4.9E+06 | 3.4E+07 | 2.1E+08 | 8.1E+08 | 6.8E+05 | 1.2E+06 | 5.3E+05 | 10.7 | 6.6E+05 | 13.2 | 5.5E+05 | P4 Growth rate ([1]; FBS 20%): 10.9; P5 Count (3-well) ([1]; FBS 20%): 3.6E+05; P5 Growth rate ([1]; FBS 20%): 7.2; cumulative number of cells (average value), P1 ([1]; FBS 20%): 1.2E+06; cumulative number of cells (average value), P2 ([1]; FBS 20%): 1.3E+07; cumulative number of cells (average value), P3 ([1]; FBS 20%): 1.7E+08; cumulative number of cells (average value), P4 ([1]; FBS 20%): 1.8E+09; cumulative number of cells (average value), P5 ([1]; FBS 20%): 1.3E+10; growth performance of MSC (cumulative number of cells) [1]: almost the same growth performance
2 | #1-L4-#1: dimer of VHH #1 with linker L4 (GSEGKSSGSGSESKST), SEQ ID NO: 23 (protein, #1-L4-#1) VHH: QLQLVESGGGSVQAGGSLRLSCAASRSLSRFNVWTWYRQAPVKQRELVASITKSGDTNYAESVKGRFIISRDDDKNTVYLQMNNLKSEDTGIYYCAGSYYSGSYLYPSPGGFSVWGQGTQVTVSSGSEGKSSGSGSESKSTQLQLVESGGGSVQAGGSLRLSCAASRSLSRFNVWTWYRQAPVKQRELVASITKSGDTNYAESVKGRFIISRDDDKNTVYLQMNNLKSEDTGIYYCAGSYYSGSYLYPSPGGFSVWGQGTQVTVSS | 4.3E+05 | 8.5 | 3.7E+05 | 7.5 | 2.9E+05 | 5.8 | 2.2E+05 | 4.3 | 6.3E+05 | 5.4E+06 | 4.0E+07 | 2.3E+08 | 1.0E+09 | 6.3E+05 | 1.3E+06 | 8.4E+05 | 16.7 | 6.9E+05 | 13.7 | 4.9E+05 | denaturation temperature (Td) [2]: 75.4 °C; morphology of MSC ([1]; 10% FBS, low concentration (1 ng/mL)): flattened morphology; morphology of MSC ([1]; 20% FBS): same morphology was exhibited regardless of the addition concentration; P4 Growth rate ([1]; FBS 20%): 9.7; P5 Count (3-well) ([1]; FBS 20%): 4.3E+05; P5 Growth rate ([1]; FBS 20%): 8.7; cumulative number of cells (average value), P1 ([1]; FBS 20%): 1.3E+06; cumulative number of cells (average value), P2 ([1]; FBS 20%): 2.1E+07; cumulative number of cells (average value), P3 ([1]; FBS 20%): 2.9E+08; cumulative number of cells (average value), P4 ([1]; FBS 20%): 2.8E+09; cumulative number of cells (average value), P5 ([1]; FBS 20%): 2.4E+10; growth performance of MSC (cumulative number of cells) [1]: almost the same growth performance
3 | VHH Clone #1: alpaca-derived VHH single-domain antibody (monomer) binding FGFR1, amino acid sequence SEQ ID NO: 17 (protein, VHH_Clone_#1) VHH: QLQLVESGGGSVQAGGSLRLSCAASRSLSRFNVWTWYRQAPVKQRELVASITKSGDTNYAESVKGRFIISRDDDKNTVYLQMNNLKSEDTGIYYCAGSYYSGSYLYPSPGGFSVWGQGTQVTVSS | – | – | – | – | – | – | – | – | – | – | – | – | – | – | – | – | – | – | – | – | denaturation temperature (Td) [2]: 74.1 °C
